Experimental data as given in the nanobody polyreactivity screen of Harvey et al. (2022).

Experiment: yeast display, Sf9 membrane polyspecificity reagent, FACS + sequencing; frameworks hold sequencing errors
Summary of the method: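 Using colony PCR, genes from sorted yeast display clones were amplified, then sequenced on MiSeq at 2 × 250 and filtered by CDR length. The clones had been stained with 10% biotinylated, detergent-solubilized Sf9 membrane reagent for 1 hour at 4 °C and sorted by FACS into low and high (top ~1%) gates on anti-HA and streptavidin fluorescence. Polyreactivity labels come from the gate of origin.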

Row | Sequence | polyreactivity (PSR sort gate)
1 | QVQLVESGGGLVQAGGSLRLSCAASGSTFTGYVMGWYRQAPGKERELVAAITSSVDGTYYADSVKGRFTISRDNAKNTVYLQMNSLKPEDTAVYDCAADLWKGVYPSYDYWGQGTQVTVSS | low polyreactivity
2 | QVQLVESGGGLVQAGGSLRLSSAASGSTFQLYAMRLYRQAPGKETELVAAISGIGDSTYYADSVKGGFTISRDNAKNTVYLQMNSLKPEDTAVYYCAREFSDGLSGKFDYWGQGTQVTGSS | low polyreactivity
3 | QVQLVESGGGLVQAGGSLRLSCAASGSISYYNAMGWYRQAPGKERELVAAITYSAGGTYYADSVKGRFTISRDNAKNTVYLQMNSLKPEDTAVYYCAADAYKHVAYGGVYWYYYWGLGTQVTVSS | high polyreactivity
4 | QVQLVESGGGLVQAGGSLRLSCAASGGILPKYAMGWYRQAPGKERELVAAIDGGGDSTYYADSVKGRFTISRDNAKNTVYLQMNSLKPEDTAVFYCAAYQWTGYYLEYDYWGQGTQVTVSS | low polyreactivity
5 | QVQLVESGGGLVQAGGSLRLSCDASGSTFVRYVMRWYRHAPGKEMELVAAISRRGGSTYYADSVKGRFTISRDNAKNTVYLQMNSLKPEDTAVYYCARTVCYRTLLESDSCGQGTQVTVSS | high polyreactivity
6 | QVQLVESGGGLVQAGGSLRLSCAASGIIFLGYARGWYRQAPGKERELVADIYSGVRTYYADSVKGRFTISRDNAKNTVYLQMNSLKPEDTAVYYCNATWTPYSSKQYYYWGQGTQVTVSS | low polyreactivity
7 | QLQLEESAGGLVQAGGSLRLSCAASGLTFPSYVMGRYRPAPGKEREFVAASTGSAGSTYYADSVKGRLTISRDNAKNTVYLQMISLKPEDSAVYYCAARVRYVNPKYYYWGHGTQVTVSS | high polyreactivity
8 | QVQLVETGGGLVQAGGSLRLSCAASGFTFPNAMGWYRQAPGKERELVATISSSGGSTYYADSVKGRFTISRDNAKNTVYLQMNSLKPEDTEVYYCAASTRQYWIYRAYRDEYWGQGTQVTVSS | low polyreactivity
9 | QVQLVESGGGLVQAGGSLRLSCAASGFIFSRYGMGWYRQAPGKERELVAAISRSGGSTYYADSVKGRFTISRDNAKNTVYLQMNSLKPEDTAVYYCATAYSWRNADRFAYSYDYWGQGTQVTVSS | low polyreactivity
10 | QVQLVESGGGLVQAGGSLRLSCAASGFTFRYNAMGWYRQAPGKKGSWVAAISRTGGSTYYADSVKGRFTISRDNAKNTVYLQMNSLKPEDTAVYYCARAPEGTGGKYGYWGQGTQVTVSS | high polyreactivity
11 | QAQLVESGGGLVQAGGSLRLSCAASGRTFYYYTMGWYRQAPGKERELVAAISYSGGSTSYADSVKGRFTISRDNAKNTVYLQMNSLKPEDTAVYYCNARYKYYTQRRYHYDYWGQGTQVTVSS | high polyreactivity
12 | QVQLVESGGGLVQAGGSLRLSCAASGLTFHRYAMGWYRQAPGKERELVAANNYSGGRTYYADSVKGRFTISRDNAKNTVYLQMNSLKPEDTAVYYCAAPRASGYYWGQGTQVTVSS | high polyreactivity
13 | QVQLVESGGGLVQAGCSLRLSCAACGFTFIPNAMGWYRQAPAKERELVAAISFGGGSTYYADSVKGRFTISRDNAKNTVYLQMNSMKPEETAVYYCAAEAFVSYEPYWYVRYYSSYNYWGQGTQVTVSS | high polyreactivity
14 | QVQLVESGGGLVQAGGSLRLSCAASGSTFDVNAMGSYRQAPGKERELVAAISWNSGSTYFADSVKGRFTISRDNAKNTVYLQMNRLKPEDTAVYYCAATYGTGRRSKYGYWGQGTQVTVSS | high polyreactivity
15 | QVQLVESGGGLVQAGGSLRLSCAASGSTFSWYAMGWYRQAPGKERELVASISWRGGSTYYADSVKGRFTISRDNAKNTVSLQMNSLKPEDTAVYYCAADYDWKLFHEPPAVYDYDYWGQGTQVTVSS | low polyreactivity
16 | QVKLVESGGGLVQAGGSLRLSCSASGLTLSGNAMGWYRQAPGKERELVAAITGRGGSTTYADSVKGRFTISRDNAKNTVYLQMNSLKPEDTAVYYCPATRYSWHNRGSRRHRYDYWGQGTQVTVSS | low polyreactivity
17 | QVQLVESGGGLVQAGGSLRLSCAASGSIFSQYAMGWYRQAPGKERELVAAISRSGGRTSYADSVKGRFTISRDNAKNTVYLQMNSLKPEDTAVYYCAARGPTNMGYWGQGTQVTVSS | high polyreactivity
